± gives the standard deviation of the averaged measurements.
Assay: total protein half-life in vivo (active degradation + dilution); higher = more stable protein
[1] = E. coli NCM3722 delta-clpP delta-lon delta-hslV, growth: N-lim chemostat, doubling time 6 h
[2] = E. coli NCM3722 delta-clpP, growth: N-lim chemostat, doubling time 6 h
[3] = E. coli NCM3722 delta-hslV, growth: N-lim chemostat, doubling time 6 h
[4] = E. coli NCM3722 delta-smpB, growth: N-lim chemostat, doubling time 6 h
[5] = wild type E. coli NCM3722, growth: C-lim chemostat, doubling time 3 h
[6] = wild type E. coli NCM3722, growth: C-lim chemostat, doubling time 6 h
[7] = wild type E. coli NCM3722, growth: C-lim chemostat, doubling time 12 h
[8] = wild type E. coli NCM3722, growth: N-lim chemostat, doubling time 6 h
[9] = wild type E. coli NCM3722, growth: N-lim chemostat, doubling time 12 h
[10] = E. coli NCM3722 delta-lon, growth: N-lim chemostat, doubling time 6 h
[11] = wild type E. coli NCM3722, growth: P-lim chemostat, doubling time 6 h
[12] = wild type E. coli NCM3722, growth: P-lim chemostat, doubling time 12 h

Sequence | total protein half-life in vivo [1] | total protein half-life in vivo [2] | total protein half-life in vivo [3] | total protein half-life in vivo [4] | total protein half-life in vivo [5] | total protein half-life in vivo [6] | total protein half-life in vivo [7] | total protein half-life in vivo [8] | total protein half-life in vivo [9] | total protein half-life in vivo [10] | total protein half-life in vivo [11] | total protein half-life in vivo [12]
MRILLSNDDGVHAPGIQTLAKALREFADVQVVAPDRNRSGASNSLTLESSLRTFTFENGDIAVQMGTPTDCVYLGVNALMRPRPDIVVSGINAGPNLGDDVIYSGTVAAAMEGRHLGFPALAVSLDGHKHYDTAAAVTCSILRALCKEPLRTGRILNINVPDLPLDQIKGIRVTRCGTRHPADQVIPQQDPRGNTLYWIGPPGGKCDAGPGTDFAAVDEGYVSITPLHVDLTAHSAQDVVSDWLNSVGVGTQW [P0A840] | 4.833 ± 0.047 h | 4.03 h | 4.1 ± 0.25 h | 3.71 ± 0.83 h | 3.04 ± 0.33 h | 6.21 ± 0.81 h | 8.36 ± 0.48 h | 4.5 h | 5.84 ± 1.5 h | – | – | –
MRILVLGVGNILLTDEAIGVRIVEALEQRYILPDYVEILDGGTAGMELLGDMANRDHLIIADAIVSKKNAPGTMMILRDEEVPALFTNKISPHQLGLADVLSALRFTGEFPKKLTLVGVIPESLEPHIGLTPTVEAMIEPALEQVLAALRESGVEAIPREAIHD | 5.25 ± 0.57 h | 4.51 ± 0.38 h | 4.14 ± 0.58 h | 3.53 ± 0.16 h | 3.09 ± 0.27 h | 5.7 ± 1.1 h | 11.5 ± 0.37 h | 4.28 ± 0.7 h | 6.81 ± 0.15 h | 5.3 ± 0.96 h | 6.77 ± 0.8 h | 11 ± 0.18 h
MRKIVAMAVICLTAASGLTSAYAAQLADDEAGLRIRLKNELRRADKPSAGAGRDIYAWVQGGLLDFNSGYYSNIIGVEGGAYYVYKLGARADMSTRWYLDGDKSFGFALGAVKIKPSENSLLKLGRFGTDYSYGSLPYRIPLMAGSSQRTLPTVSEGALGYWALTPNIDLWGMWRSRVFLWTDSTTGIRDEGVYNSQTGKYDKHRARSFLAASWHDDTSRYSLGASVQKDVSNQIQSILEKSIPLDPNYTLKGELLGFYAQLEGLSRNTSQPNETALVSGQLTWNAPWGSVFGSGGYLRHAMNGAVVDTDIGYPFSLSLDRNREGMQSWQLGVNYRLTPQFTLTFAPIVTRGYESSKRDVRIEGTGILGGMNYRVSEGPLQGMNFFLAADKGREKRDGSTLGDRLNYWDVKMSIQYDFMLK | – | – | – | – | 3.55 ± 0.51 h | 7.84 h | 11.5 ± 2 h | – | – | – | – | –
MRKSVIAIIIIVLVVLYMSVFVVKEGERGITLRFGKVLRDDDNKPLVYEPGLHFKIPFIETVKMLDARIQTMDNQADRFVTKEKKDLIVDSYIKWRISDFSRYYLATGGGDISQAEVLLKRKFSDRLRSEIGRLDVKDIVTDSRGRLTLEVRDALNSGSAGTEDEVTTPAADNAIAEAAERVTAETKGKVPVINPNSMAALGIEVVDVRIKQINLPTEVSEAIYNRMRAEREAVARRHRSQGQEEAEKLRATADYEVTRTLAEAERQGRIMRGEGDAEAAKLFADAFSKDPDFYAFIRSLRAYENSFSGNQDVMVMSPDSDFFRYMKTPTSATR [P0ABC3] | 6.51 ± 1.1 h | 6.07 ± 0.18 h | 6.357 ± 0.024 h | 5.72 ± 0.33 h | 3.09 ± 0.1 h | 6.06 ± 0.14 h | 11.7 ± 0.84 h | 6.653 ± 0.049 h | 12.7 ± 0.77 h | 6.347 ± 0.034 h | 6 ± 0.65 h | 13.8 ± 0.97 h
MRLCDRDIEAWLDEGRLSINPRPPVERINGATVDVRLGNKFRTFRGHTAAFIDLSGPKDEVSAALDRVMSDEIVLDEGEAFYLHPGELALAVTLESVTLPADLVGWLDGRSSLARLGLMVHVTAHRIDPGWSGCIVLEFYNSGKLPLALRPGMLIGALSFEPLSGPAVRPYNRREDAKYRNQQGAVASRIDKD | 3.92 ± 0.54 h | 3.36 ± 0.25 h | 3.062 ± 0.021 h | 3.14 ± 0.53 h | 2.852 ± 0.011 h | 4.81 ± 0.3 h | 7.69 ± 0.16 h | 3.17 ± 0.19 h | 4.96 ± 0.52 h | 4.56 ± 1.7 h | 5.25 ± 0.11 h | 10.4 ± 0.19 h
MRLDKFIAQQLGVSRAIAGREIRGNRVTVDGEIVRNAAFKLLPEHDVAYDGNPLAQQHGPRYFMLNKPQGYVCSTDDPDHPTVLYFLDEPVAWKLHAAGRLDIDTTGLVLMTDDGQWSHRITSPRHHCEKTYLVTLESPVADDTAEQFAKGVQLHNEKDLTKPAVLEVITPTQVRLTISEGRYHQVKRMFAAVGNHVVELHRERIGGITLDADLAPGEYRPLTEEEIASVV [P0AA43] | 5.25 ± 0.067 h | 4.76 ± 0.54 h | 3.68 ± 0.064 h | 3.78 ± 0.066 h | 3 ± 0.1 h | 4.74 ± 0.18 h | 8.66 ± 0.55 h | 3.57 ± 0.14 h | 6.08 ± 0.51 h | 4.65 ± 0.39 h | 4 ± 0.33 h | 7.21 ± 0.22 h
MRLFAQLSWYFRREWRRYLGAVALLVIIAMLQLVPPKVVGIVVDGVTEQHFTTGQILMWIATMVLIAVVVYLLRYVWRVLLFGASYQLAVELREDYYRQLSRQHPEFYLRHRTGDLMARATNDVDRVVFAAGEGVLTLVDSLVMGCAVLIMMSTQISWQLTLFSLLPMPVMAIMIKRNGDALHERFKLAQAAFSSLNDRTQESLTSIRMIKAFGLEDRQSALFAADAEDTGKKNMRVARIDARFDPTIYIAIGMANLLAIGGGSWMVVQGSLTLGQLTSFMMYLGLMIWPMLALAWMFNIVERGSAAYSRIRAMLAEAPVVNDGSEPVPEGRGELDVNIHQFTYPQTDHPALENVNFALKPGQMLGICGPTGSGKSTLLSLIQRHFDVSEGDIRFHDIPLTKLQLDSWRSRLAVVSQTPFLFSDTVANNIALGCPNATQQEIEHVARLASVHDDILRLPQGYDTEVGERGVMLSGGQKQRISIARALLVNAEILILDDALSAVDGRTEHQILHNLRQWGQGRTVIISAHRLSALTEASEIIVMQHGHIAQRGNHDVLAQQSGWYRDMYRYQQLEAALDDAPENREEAVDA | 6.33 ± 0.2 h | 6.624 ± 0.017 h | 5.58 ± 1.5 h | 4.26 ± 0.096 h | – | 4.99 ± 0.061 h | 11.1 ± 1.6 h | 4.77 ± 0.67 h | 7.121 ± 0.033 h | 4.42 ± 0.37 h | 6.08 ± 0.52 h | 11.6 ± 3.3 h

Reference: the supplement of paper PMC11246515
